Results taken from paper PMC6899989.

How the values were obtained:
[1] = biological target: N-terminal His6-tagged RpPpsR2 (gene repressor from Rhodopseudomonas palustris) (Rhodopseudomonas palustris); experiment: SEC; RpPpsR2 in 5 mM DTT
[2] = biological target: N-terminal His6-tagged RpPpsR2 (gene repressor from Rhodopseudomonas palustris) (Rhodopseudomonas palustris); experiment: pull-down; Ni(II)-affinity chromatography on 1 mL His-Trap HP; His6-RpPpsR2 mixed 1:4 with untagged RpBphP1 or RpBphP1ΔHOS; illuminated for 5 min with 760 nm light (Pr state); imidazole elution monitored at 280 and 400 nm; SDS/PAGE scan of peak BP
[3] = biological target: full-length RpBphP1, SAXS sample (gene PCR amplified from Rps. palustris strain 2.1.6, in pET28a) (Rhodopseudomonas palustris); experiment: SAXS; 5 mM Tris pH 8, 1 and 4 mg/mL, 8 °C; continuous illumination with 760 nm light (Pr state); mass by SAXS MoW2, ab-initio envelopes
[4] = biological target: full-length RpBphP1, SAXS sample (gene PCR amplified from Rps. palustris strain 2.1.6, in pET28a) (Rhodopseudomonas palustris); experiment: SAXS; 5 mM Tris pH 8, 1 and 4 mg/mL, 8 °C; dark-purified protein measured in darkness (Pfr state); mass by SAXS MoW2, ab-initio envelopes
[5] = biological target: RpBphP1, sample used for size exclusion chromatography (synthesised gene) (Rhodopseudomonas palustris); experiment: SEC; Superose 12 10/300 GL, 200 μL at 1-4 mg/mL, 5 mM TrisHCl pH 8, 10 mM NaCl; in the dark (Pfr state)
[6] = biological target: RpBphP1, sample used for size exclusion chromatography (synthesised gene) (Rhodopseudomonas palustris); experiment: SEC; Superose 12 10/300 GL, 200 μL at 1-4 mg/mL, 5 mM TrisHCl pH 8, 10 mM NaCl; after illumination with 760 nm light for 5 min (Pr state)

N-terminal His6-tagged RpPpsR2 (gene repressor from Rhodopseudomonas palustris) (natural protein)
stoichiometry N [1]: 2

untagged full-length RpBphP1 (bacteriophytochrome from Rhodopseudomonas palustris) (natural protein)
stoichiometry N (RpBphP1 per RpPpsR2) [2]: 2

full-length RpBphP1, SAXS sample (gene PCR amplified from Rps. palustris strain 2.1.6, in pET28a) (natural protein)
stoichiometry N [3]: 2
stoichiometry N [4]: 2

RpBphP1, sample used for size exclusion chromatography (synthesised gene) (natural protein)
stoichiometry N [5]: 2
stoichiometry N [6]: 2
